Target: T1, CBX8-directed TALE-omega (synthetic construct, UniProt Q56830 SEQ:41-724)
T1 chain: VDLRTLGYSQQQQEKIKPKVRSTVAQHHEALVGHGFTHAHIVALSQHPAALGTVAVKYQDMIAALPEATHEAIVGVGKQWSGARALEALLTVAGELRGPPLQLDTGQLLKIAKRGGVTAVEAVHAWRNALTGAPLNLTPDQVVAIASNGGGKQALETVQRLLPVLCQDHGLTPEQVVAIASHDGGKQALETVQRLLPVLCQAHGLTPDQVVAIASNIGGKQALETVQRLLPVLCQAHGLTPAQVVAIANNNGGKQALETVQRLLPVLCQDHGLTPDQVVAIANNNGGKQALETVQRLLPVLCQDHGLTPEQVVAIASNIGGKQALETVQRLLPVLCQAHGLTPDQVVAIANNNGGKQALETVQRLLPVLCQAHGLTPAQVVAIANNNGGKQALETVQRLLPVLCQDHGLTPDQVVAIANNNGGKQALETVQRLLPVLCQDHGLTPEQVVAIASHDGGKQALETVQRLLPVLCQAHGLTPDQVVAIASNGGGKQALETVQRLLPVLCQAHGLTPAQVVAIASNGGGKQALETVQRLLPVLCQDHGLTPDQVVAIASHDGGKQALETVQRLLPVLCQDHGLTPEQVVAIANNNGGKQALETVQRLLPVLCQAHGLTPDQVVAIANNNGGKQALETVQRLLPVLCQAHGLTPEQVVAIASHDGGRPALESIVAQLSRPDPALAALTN
Test: one_hybrid; luciferase induction, 18 aa C-terminus plus GGGGS linker
Conditions: tags: N-terminal FLAG-NLS, C-terminal RNAP omega
Protocol: This system was used to continuously evolve TALE proteins with novel properties. A series of C-terminal fusions between a previously reported TALE array targeting CBX8 (right half-site TALE)¹⁸, and the RNAP w subunit were tested. […] The sequence specificity of the system was verified using an off-target sequence in the luciferase assay, and performed on- and off-target colorimetric plaque assays using TALE-ω SP and host cells harboring the AP containing the target CBX8 sequence. Similar to the findings with zinc fingers, both luciferase expression and phage propagation were dependent on the presence of the cognate TALE binding site (FIG. 10B). Finally, PACE was performed for 24 h on the cognate AP to optimize the SP backbone.
Luciferase assay. pOH plasmids were transformed by electroporation into S1030 cells, and grown overnight at 37° C. on LB-agar plates supplemented with 50 μg/mL carbenicillin. Single colonies were used to inoculate cultures which were allowed to grow for ˜12 h at 37° C. in DRM supplemented with 50 μg/mL carbenicillin in a shaker. Cultures were diluted to an OD₆₀₀ of ˜0.3 and allowed to grow for an additional 2 h at 37° C. […] 200 μL aliquots of each sample were then transferred to 96-well opaque plates and luminescence and OD₆₀₀ readings were taken using a Tecan Infinite Pro instrument. Luminescence data were normalized to cell density by dividing by the OD₆₀₀ value.

B1: CBX8 5'T site (dsDNA)
DNA 1: TTCAGGAGGGCTTCGGC
DNA 2: GCCGAAGCCCTCCTGAA
- binding signal: > 10 fold

From patent US20240200044, “EVOLUTION OF TALENS” (President and Fellows of Harvard College, published 2024)
